Laboratory results as given in PMC8996214, “Aptamer blocking S-TLR4 interaction selectively inhibits SARS-CoV-2 induced inflammation”.

B1: ST-6-1 (structured_DNA)
DNA: AGGGCATCAAAGGGGGGAGGGCGGGTGGATTGGATGCCGA
B2: ST-6-2 (structured_DNA)
DNA: GGGGAGGGCGGGTGGATTGGATGCCGA
B3: ST-6 (structured_DNA)
DNA: AGCAGCACAGAGGTCAGATGAGGGCATCAAAGGGGGGAGGGCGGGTGGATTGGATGCCGACCTATGCGTGCTACCGTGAA

Each binder was assayed against SARS-CoV-2 spike trimer (SARS-CoV-2, UniProt P0DTC2) (assay: BLI). Settings: protein: commercial; tags: His.

Question: Does B1 bind?
Answer: binds

Question: Does B2 bind?
Answer: binds

Question: Does B3 bind?
Answer: binds

The binders below were run against HCoV-HKU1 spike protein (HCoV-HKU1, UniProt Q5MQD0) (assay: ELISA). Settings: protein: commercial.
Sequence of HCoV-HKU1 spike protein (Q5MQD0 13-1300): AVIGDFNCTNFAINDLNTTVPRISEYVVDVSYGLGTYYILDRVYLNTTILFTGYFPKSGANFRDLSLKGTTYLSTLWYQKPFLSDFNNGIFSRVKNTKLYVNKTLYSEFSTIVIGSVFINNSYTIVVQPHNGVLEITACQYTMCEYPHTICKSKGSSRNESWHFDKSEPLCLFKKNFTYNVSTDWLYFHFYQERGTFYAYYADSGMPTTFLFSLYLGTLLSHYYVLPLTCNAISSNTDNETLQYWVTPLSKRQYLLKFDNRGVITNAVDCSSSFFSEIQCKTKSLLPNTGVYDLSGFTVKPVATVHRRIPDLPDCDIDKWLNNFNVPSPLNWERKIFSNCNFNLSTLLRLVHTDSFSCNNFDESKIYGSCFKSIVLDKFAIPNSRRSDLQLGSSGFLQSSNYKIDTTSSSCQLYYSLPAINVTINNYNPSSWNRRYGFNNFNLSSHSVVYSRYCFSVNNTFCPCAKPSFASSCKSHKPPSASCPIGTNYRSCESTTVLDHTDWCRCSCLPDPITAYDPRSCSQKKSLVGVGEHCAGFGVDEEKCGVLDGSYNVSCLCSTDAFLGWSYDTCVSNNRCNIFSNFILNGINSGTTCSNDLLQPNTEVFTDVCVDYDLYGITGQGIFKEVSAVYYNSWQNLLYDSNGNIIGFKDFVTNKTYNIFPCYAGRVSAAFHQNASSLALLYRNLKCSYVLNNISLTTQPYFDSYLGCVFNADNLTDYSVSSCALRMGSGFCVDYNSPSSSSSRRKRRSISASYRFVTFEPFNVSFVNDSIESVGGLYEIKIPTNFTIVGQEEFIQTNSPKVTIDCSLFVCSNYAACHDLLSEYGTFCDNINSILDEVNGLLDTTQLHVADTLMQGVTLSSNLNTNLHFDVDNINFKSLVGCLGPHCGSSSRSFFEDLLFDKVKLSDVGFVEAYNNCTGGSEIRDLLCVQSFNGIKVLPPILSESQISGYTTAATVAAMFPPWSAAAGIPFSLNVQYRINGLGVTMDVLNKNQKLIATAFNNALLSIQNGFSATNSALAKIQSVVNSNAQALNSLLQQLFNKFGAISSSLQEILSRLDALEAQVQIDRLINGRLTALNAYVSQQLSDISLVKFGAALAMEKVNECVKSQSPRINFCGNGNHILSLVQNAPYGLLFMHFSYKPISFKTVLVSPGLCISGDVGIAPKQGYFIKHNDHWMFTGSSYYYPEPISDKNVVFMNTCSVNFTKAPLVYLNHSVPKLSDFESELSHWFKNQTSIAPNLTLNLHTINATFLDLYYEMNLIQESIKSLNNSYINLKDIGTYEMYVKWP

Question: Does B1 bind?
Answer: no binding

Question: Does B2 bind?
Answer: no binding

Question: Does B3 bind?
Answer: no binding

The binders below were run against TLR4 (UniProt O00206 24-631) (assay: ELISA). Settings: protein: commercial.
Sequence of TLR4 (O00206 24-631): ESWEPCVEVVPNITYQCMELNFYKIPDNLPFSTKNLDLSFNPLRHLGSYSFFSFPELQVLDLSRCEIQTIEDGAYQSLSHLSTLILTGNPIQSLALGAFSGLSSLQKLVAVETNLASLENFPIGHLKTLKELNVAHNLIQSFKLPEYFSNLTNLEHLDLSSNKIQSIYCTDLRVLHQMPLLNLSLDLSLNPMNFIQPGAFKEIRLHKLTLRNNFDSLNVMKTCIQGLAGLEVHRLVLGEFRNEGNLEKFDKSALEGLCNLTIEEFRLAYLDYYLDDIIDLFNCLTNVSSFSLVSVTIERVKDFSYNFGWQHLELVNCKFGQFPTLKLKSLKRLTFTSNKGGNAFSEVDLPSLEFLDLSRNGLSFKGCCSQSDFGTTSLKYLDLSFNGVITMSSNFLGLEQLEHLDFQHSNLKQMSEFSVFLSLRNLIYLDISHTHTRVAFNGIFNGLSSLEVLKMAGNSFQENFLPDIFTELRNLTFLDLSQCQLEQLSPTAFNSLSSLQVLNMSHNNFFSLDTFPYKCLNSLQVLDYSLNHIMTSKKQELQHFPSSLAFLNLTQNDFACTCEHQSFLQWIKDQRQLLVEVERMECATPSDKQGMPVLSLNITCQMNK

Question: Does B1 bind?
Answer: no binding

Question: Does B2 bind?
Answer: no binding

Question: Does B3 bind?
Answer: no binding

Each binder was assayed against ACE2 (UniProt Q9BYF1 18-740) (assay: ELISA). Settings: protein: commercial.
Sequence of ACE2 (Q9BYF1 18-740): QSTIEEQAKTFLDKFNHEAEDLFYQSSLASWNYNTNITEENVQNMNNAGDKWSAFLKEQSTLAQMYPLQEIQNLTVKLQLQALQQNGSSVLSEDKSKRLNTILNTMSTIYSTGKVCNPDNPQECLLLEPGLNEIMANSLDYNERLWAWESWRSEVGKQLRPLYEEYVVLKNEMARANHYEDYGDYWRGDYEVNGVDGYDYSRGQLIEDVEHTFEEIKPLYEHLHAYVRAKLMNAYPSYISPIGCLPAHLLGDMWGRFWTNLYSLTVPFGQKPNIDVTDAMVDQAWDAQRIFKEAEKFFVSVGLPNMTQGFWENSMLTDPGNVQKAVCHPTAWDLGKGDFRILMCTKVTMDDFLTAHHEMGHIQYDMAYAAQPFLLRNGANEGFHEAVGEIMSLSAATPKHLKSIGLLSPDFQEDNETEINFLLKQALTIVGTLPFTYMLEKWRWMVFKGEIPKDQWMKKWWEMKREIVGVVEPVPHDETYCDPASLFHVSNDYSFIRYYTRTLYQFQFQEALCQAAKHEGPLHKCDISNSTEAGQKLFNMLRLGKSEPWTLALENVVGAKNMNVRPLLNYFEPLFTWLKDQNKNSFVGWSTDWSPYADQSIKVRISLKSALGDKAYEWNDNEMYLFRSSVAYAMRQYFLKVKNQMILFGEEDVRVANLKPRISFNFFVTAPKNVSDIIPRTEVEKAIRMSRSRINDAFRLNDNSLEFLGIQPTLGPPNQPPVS

Question: Does B1 bind?
Answer: no binding

Question: Does B2 bind?
Answer: no binding

Question: Does B3 bind?
Answer: no binding

The binders below were run against SARS-CoV-2 spike RBD (SARS-CoV-2, UniProt P0DTC2 319-541) (assay: ELISA). Settings: not given.

Question: Does B1 bind?
Answer: no binding

Question: Does B2 bind?
Answer: no binding

Question: Does B3 bind?
Answer: no binding

The binders below were run against PDGF-AA (UniProt P04085 87-211) (assay: ELISA). Settings: protein: commercial; chain copies: 2.

Question: Does B1 bind?
Answer: no binding

Question: Does B2 bind?
Answer: no binding

Question: Does B3 bind?
Answer: no binding

The binders below were run against SARS-CoV spike protein (SARS-CoV, UniProt P59594 14-1195) (assay: ELISA). Settings: protein: commercial; chain copies: 3; label: 5'-biotin (BLI, ELISA); Cy3 (flow cytometry); FAM (imaging); G-quadruplex.

Question: Does B1 bind?
Answer: no binding

Question: Does B2 bind?
Answer: no binding

Question: Does B3 bind?
Answer: no binding

The binders below were run against MERS-CoV spike protein (MERS-CoV, UniProt K9N5Q8 18-1296) (assay: ELISA). Settings: protein: commercial; chain copies: 3; label: 5'-biotin (BLI, ELISA); Cy3 (flow cytometry); FAM (imaging); G-quadruplex.
Sequence of MERS-CoV spike protein (K9N5Q8 18-1296): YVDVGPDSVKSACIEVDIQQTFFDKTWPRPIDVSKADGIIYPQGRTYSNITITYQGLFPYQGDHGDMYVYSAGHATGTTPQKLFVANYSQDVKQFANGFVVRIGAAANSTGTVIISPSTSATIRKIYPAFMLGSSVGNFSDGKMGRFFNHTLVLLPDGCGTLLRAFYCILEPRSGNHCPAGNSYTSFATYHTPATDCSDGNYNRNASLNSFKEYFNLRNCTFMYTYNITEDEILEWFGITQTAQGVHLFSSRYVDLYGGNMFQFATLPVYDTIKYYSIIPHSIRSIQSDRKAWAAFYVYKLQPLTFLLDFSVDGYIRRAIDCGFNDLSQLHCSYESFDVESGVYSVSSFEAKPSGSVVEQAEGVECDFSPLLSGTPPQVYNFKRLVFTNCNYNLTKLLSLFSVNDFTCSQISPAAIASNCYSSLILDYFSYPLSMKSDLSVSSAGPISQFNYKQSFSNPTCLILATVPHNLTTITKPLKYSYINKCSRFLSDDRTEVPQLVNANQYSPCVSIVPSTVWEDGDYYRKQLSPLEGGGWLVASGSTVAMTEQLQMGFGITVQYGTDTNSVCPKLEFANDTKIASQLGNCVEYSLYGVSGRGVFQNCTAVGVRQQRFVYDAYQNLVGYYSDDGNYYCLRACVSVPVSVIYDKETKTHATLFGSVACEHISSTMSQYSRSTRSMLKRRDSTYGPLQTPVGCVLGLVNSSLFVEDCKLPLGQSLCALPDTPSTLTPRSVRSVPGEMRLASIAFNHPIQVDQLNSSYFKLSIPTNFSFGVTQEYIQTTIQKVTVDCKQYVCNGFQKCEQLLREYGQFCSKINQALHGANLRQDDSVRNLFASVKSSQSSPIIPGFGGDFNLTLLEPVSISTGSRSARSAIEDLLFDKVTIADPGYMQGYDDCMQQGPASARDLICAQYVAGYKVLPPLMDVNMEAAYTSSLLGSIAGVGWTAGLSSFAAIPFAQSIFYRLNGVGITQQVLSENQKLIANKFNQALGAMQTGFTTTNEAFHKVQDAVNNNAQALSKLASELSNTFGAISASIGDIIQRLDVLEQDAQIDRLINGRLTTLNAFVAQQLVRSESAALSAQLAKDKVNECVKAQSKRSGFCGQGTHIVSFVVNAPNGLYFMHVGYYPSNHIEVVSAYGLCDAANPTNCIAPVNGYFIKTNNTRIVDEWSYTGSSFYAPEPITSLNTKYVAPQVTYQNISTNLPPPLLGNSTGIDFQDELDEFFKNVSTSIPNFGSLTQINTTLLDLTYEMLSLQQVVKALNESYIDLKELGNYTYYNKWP

Question: Does B1 bind?
Answer: no binding

Question: Does B2 bind?
Answer: no binding

Question: Does B3 bind?
Answer: no binding
